Assay results taken from US20240317847A1 (Bayer, published 2024).

T1: murine IL-11 (mouse, UniProt P47873 22-199)
T1 construct: bought from Invigate; also called mIL-11; mIL11
T1 sequence: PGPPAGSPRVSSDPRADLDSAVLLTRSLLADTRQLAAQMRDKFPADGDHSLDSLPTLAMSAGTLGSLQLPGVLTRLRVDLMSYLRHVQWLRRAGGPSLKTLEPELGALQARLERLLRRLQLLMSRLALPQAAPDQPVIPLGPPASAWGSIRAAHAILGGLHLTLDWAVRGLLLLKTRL

T2: human IL-11 (human, UniProt P20809 22-199)
T2 construct: bought from Invigate; also called hIL-11; hIL11
T2 sequence: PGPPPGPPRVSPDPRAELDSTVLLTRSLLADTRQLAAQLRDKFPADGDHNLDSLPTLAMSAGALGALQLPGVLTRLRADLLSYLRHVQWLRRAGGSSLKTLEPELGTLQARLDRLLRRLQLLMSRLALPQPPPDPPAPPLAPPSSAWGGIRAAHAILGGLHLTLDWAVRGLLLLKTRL

T3: human IL2Ra (human, UniProt P01589 22-240, limits assumed)
T3 construct: bought protein, coated on the plate; also called hIL2RA; IL-2 receptor alpha
T3 sequence (looked up): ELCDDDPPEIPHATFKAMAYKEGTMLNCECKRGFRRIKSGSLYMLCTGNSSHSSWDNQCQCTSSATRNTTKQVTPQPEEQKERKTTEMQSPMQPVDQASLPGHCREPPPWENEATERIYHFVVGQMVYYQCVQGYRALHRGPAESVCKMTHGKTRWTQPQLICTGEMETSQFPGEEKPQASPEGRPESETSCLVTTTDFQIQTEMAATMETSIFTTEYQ

T4: murine IL-11 (mouse, UniProt P47873 22-199)
T4 sequence: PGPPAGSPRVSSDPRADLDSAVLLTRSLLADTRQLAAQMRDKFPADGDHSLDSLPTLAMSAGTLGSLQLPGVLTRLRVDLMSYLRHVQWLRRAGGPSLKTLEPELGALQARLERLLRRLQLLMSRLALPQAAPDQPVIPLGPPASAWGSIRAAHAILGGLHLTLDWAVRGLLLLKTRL

T5: human IL-11 (human, UniProt P20809 22-199)
T5 sequence: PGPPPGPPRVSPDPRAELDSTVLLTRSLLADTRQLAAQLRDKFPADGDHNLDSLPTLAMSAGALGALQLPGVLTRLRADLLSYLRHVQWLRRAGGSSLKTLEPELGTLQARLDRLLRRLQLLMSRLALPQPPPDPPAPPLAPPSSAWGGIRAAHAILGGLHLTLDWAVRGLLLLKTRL


Legend:
murine IL-11 [1] = target: T1, murine IL-11; experiment: SPR, antibody captured, IL-11 as analyte
Protocol: (§1) Antibodies were captured via anti-mouse Fc IgGs (“Mouse antibody capture kit, Order No. BR100383, Cytiva) covalently amine coupled to a Series S CM5 sensor chip (Cytiva). The amine coupling was carried out according to the manufacturer's instructions using 1-ethyl-3-(3-dimethylaminopropyl) carbodiimide hydrochloride (EDC), N-hydroxysuccinimide (NHS) and ethanolamine HCl, pH 8.5 (“Amine Coupling Kit” BR-1000-50, Cytiva.). Human IL-11 (Invigate, e.g., lot #C121021-19), and murine IL-11 (Invigate, e.g., lot #C210819-09) were used as analytes. […] Based on that experiment an IL-11 concentration range was chosen to optimally determine kinetics and affinity of anti-IL-11 antibodies in multicycle kinetics mode. The sensor surface was regenerated with glycine pH 1.7 after each antigen injection. Obtained sensorgrams were double referenced (subtraction of reference flow cell signal and buffer injection) and were fitted to a 1:1 Langmuir binding model to derive kinetic data using the Biacore T200 Evaluation software or the Biacore Insight software.
(§2) 42 hits from the IL-11 and […] screening analysis were selected, expressed by transient transfection of mammalian cells and purified as described in Example 15. Antibodies were then tested for human IL-11 and murine IL-11 binding by SPR as described in Example 16.

human IL-11 [2] = target: T2, human IL-11; experiment: SPR, antibody captured, IL-11 as analyte
Protocol: as §1, §2

human IL2Ra = target: T3, human IL2Ra; experiment: IL2Ra direct binding ELISA, signal ratio to isotype control
Protocol: IL2RA (Peprotech, Germany, #200-02RC) was coated at 1 or 0 μg/ml (buffer only control) in 30 μl coating buffer (Candor, #113500) per well on a 384 well microtiter plate (Maxisorb, Nunc, #460518) over night at 4-8° C. After two washes with 50 μl/well washing buffer (PBS+0.05% Tween, pH 7.4), the plates were incubated for two hours at room temperature with 50 μl/well SmartBlock (Candor, #113500). After blocking, the plates were washed three times with washing buffer. Then, a dilution series of the respective antibody (1E-7 [M] down to 2E-13 [M]) in PBS+0.05% Tween, 10% SmartBlock were added in 30 μl to the microtiter plate and incubated for 90 min at room temperature. After three additional washes, 30 μl anti mouse IgG HRP-conjugated antibody (Biotechne, HAF007), diluted 1:1000 in PBS+0.05% Tween (pH 7.4), were added per well and incubated for one hour. After three additional washes, a mixture of Amplex red (Invitrogen, #12222, 10 mM stock solution in DMSO) 1:1000 diluted in PBS and H2O2 (30%, Merck, #107209)) diluted 1:10000 in PBS were added as substrate with 30 μl per well and incubated for 20 min in the dark. Relative fluorescence was measured with a microtiter plate reader at 535/590 nm.
Next, the 42 antibodies were subjected to an IL2Ra binding ELISA as described in Example 20.

murine IL-11 [3] = target: T4, murine IL-11; experiment: cell-based or functional assay
human IL-11 [4] = target: T5, human IL-11; experiment: cell-based or functional assay

Binder | Kd (murine IL-11 [1]) | Kd (human IL-11 [2]) | other results
TPP-26333 (antibody, V domains shown) VH: EVQLLESGGGLVQPGGSLRLSCAASGFTFSSYGFHWVRQAPGKGLEWVSVISYDGSYKYYADSVKGRFTISRDNSKNTLYLQMNSLRAEDTAVYYCAAGVPDYWGQGTLVTVSS VL: QSVLTQPPSASGTPGQRVTISCTGSSSNIGAGYDVHWYQQLPGTAPKLLIYSNNERPSGVPDRFSGSKSGTSASLAISGLRSEDEADYYCAAWDDSLNGPVFGGGTKLTVL | – | – | hIL2RA ELISA Binding: Ratio to Isotpye (human IL2Ra): 436 ratio; RGA Efficacy (%) (murine IL-11 [3]): 94.1%; RGA IC50 (murine IL-11 [3]): 1.2 nM; RGA Efficacy (%) (human IL-11 [4]): 64.7%; RGA IC50 (human IL-11 [4]): 13 nM
TPP-26333 (antibody, V domains shown, constant regions not restated) VH: EVQLLESGGGLVQPGGSLRLSCAASGFTFSSYGFHWVRQAPGKGLEWVSVISYDGSYKYYADSVKGRFTISRDNSKNTLYLQMNSLRAEDTAVYYCAAGVPDYWGQGTLVTVSS VL: QSVLTQPPSASGTPGQRVTISCTGSSSNIGAGYDVHWYQQLPGTAPKLLIYSNNERPSGVPDRFSGSKSGTSASLAISGLRSEDEADYYCAAWDDSLNGPVFGGGTKLTVL | – | 11 nM | –
TPP-26302 (antibody, V domains shown, constant regions not restated) VH: EVQLLESGGGLVQPGGSLRLSCAASGFTFSSYGMHWVRQAPGKGLEWVSVISYDGSYKYYADSVKGRFTISRDNSKNTLYLQMNSLRAEDTAVYYCAAGVPDYWGQGTLVTVSS VL: QSVLTQPPSASGTPGQRVTISCTGSSSNIGAGYDVHWYQQLPGTAPKLLIYSNNERPSGVPDRFSGSKSGTSASLAISGLRSEDEADYYCSAWDDSLNGPVFGGGTKLTVL | 0.7 nM | 13 nM | –
TPP-26292 (antibody, V domains shown, constant regions not restated) VH: EVQLLESGGGLVQPGGSLRLSCAASGFTFSSYGMHWVRQAPGKGLEWVSVISYDGSYKYYADSVKGRFTISRDNSKNTLYLQMNSLRAEDTAVYYCAAGVPDYWGQGTLVTVSS VL: QSVLTQPPSASGTPGQRVTISCTGSSSNIGAGYDVHWYQQLPGTAPKLLIYSNNERPSGVPDRFSGSKSGTSASLAISGLRSEDEADYYCAAWDESLNGPVFGGGTKLTVL | 0.48 nM | 13 nM | –
TPP-26295 (antibody, V domains shown, constant regions not restated) VH: EVQLLESGGGLVQPGGSLRLSCAASGFTFSSYGMHWVRQAPGKGLEWVSVISYDGSYKYYADSVKGRFTISRDNSKNTLYLQMNSLRAEDTAVYYCAAGVPDYWGQGTLVTVSS VL: QSVLTQPPSASGTPGQRVTISCTGSSSNIGAGYDVHWYQQLPGTAPKLLIYSNNERPSGVPDRFSGSKSGTSASLAISGLRSEDEADYYCAAWDHSLNGPVFGGGTKLTVL | 0.65 nM | 9.8 nM | –
TPP-26296 (antibody, V domains shown, constant regions not restated) VH: EVQLLESGGGLVQPGGSLRLSCAASGFTFSSYGMHWVRQAPGKGLEWVSVISYDGSYKYYADSVKGRFTISRDNSKNTLYLQMNSLRAEDTAVYYCAAGVPDYWGQGTLVTVSS VL: QSVLTQPPSASGTPGQRVTISCTGSSSNIGAGYDVHWYQQLPGTAPKLLIYSNNERPSGVPDRFSGSKSGTSASLAISGLRSEDEADYYCAAWDNSLNGPVFGGGTKLTVL | 0.71 nM | 14 nM | –
TPP-26297 (antibody, V domains shown, constant regions not restated) VH: EVQLLESGGGLVQPGGSLRLSCAASGFTFSSYGMHWVRQAPGKGLEWVSVISYDGSYKYYADSVKGRFTISRDNSKNTLYLQMNSLRAEDTAVYYCAAGVPDYWGQGTLVTVSS VL: QSVLTQPPSASGTPGQRVTISCTGSSSNIGAGYDVHWYQQLPGTAPKLLIYSNNERPSGVPDRFSGSKSGTSASLAISGLRSEDEADYYCAAWQDSLNGPVFGGGTKLTVL | 0.89 nM | 13 nM | –

Further lines, with some results ahead:

Kd (murine IL-11 [1]) | Kd (human IL-11 [2]) | Binder | other results
0.54 nM | 8.6 nM | TPP-26290 (antibody, V domains shown, constant regions not restated) VH: EVQLLESGGGLVQPGGSLRLSCAASGFTFSSYGMHWVRQAPGKGLEWVSVISYDGSYKYYADSVKGRFTISRDNSKNTLYLQMNSLRAEDTAVYYCAAGVPDYWGQGTLVTVSS VL: QSVLTQPPSASGTPGQRVTISCTGSSSNIGAGMDVHWYQQLPGTAPKLLIYSNNERPSGVPDRFSGSKSGTSASLAISGLRSEDEADYYCAAWDDSLNGPVFGGGTKLTVL | –
0.82 nM | 11 nM | TPP-26294 (antibody, V domains shown, constant regions not restated) VH: EVQLLESGGGLVQPGGSLRLSCAASGFTFSSYGMHWVRQAPGKGLEWVSVISYDGSYKYYADSVKGRFTISRDNSKNTLYLQMNSLRAEDTAVYYCAAGVPDYWGQGTLVTVSS VL: QSVLTQPPSASGTPGQRVTISCTGSSSNIGAAYDVHWYQQLPGTAPKLLIYSNNERPSGVPDRFSGSKSGTSASLAISGLRSEDEADYYCAAWDDSLNGPVFGGGTKLTVL | –
0.26 nM | 11 nM | TPP-26293 (antibody, V domains shown, constant regions not restated) VH: EVQLLESGGGLVQPGGSLRLSCAASGFTFSSYGMHWVRQAPGKGLEWVSVISYDGSYKYYADSVKGRFTISRDNSKNTLYLQMNSLRAEDTAVYYCAAGVPDYWGQGTLVTVSS VL: QSVLTQPPSASGTPGQRVTISCTGSSSNIGAWYDVHWYQQLPGTAPKLLIYSNNERPSGVPDRFSGSKSGTSASLAISGLRSEDEADYYCAAWDDSLNGPVFGGGTKLTVL | –
0.73 nM | 13 nM | TPP-26298 (antibody, V domains shown, constant regions not restated) VH: EVQLLESGGGLVQPGGSLRLSCAASGFTFSSYGMHWVRQAPGKGLEWVSVISYDGSYKYYADSVKGRFTISRDNSKNTLYLQMNSLRAEDTAVYYCAAGVPDYWGQGTLVTVSS VL: QSVLTQPPSASGTPGQRVTISCLGSSSNIGAGYDVHWYQQLPGTAPKLLIYSNNERPSGVPDRFSGSKSGTSASLAISGLRSEDEADYYCAAWDDSLNGPVFGGGTKLTVL | –
0.94 nM | 9.7 nM | TPP-26291 (antibody, V domains shown, constant regions not restated) VH: EVQLLESGGGLVQPGGSLRLSCAASGFTFSSYGMHWVRQAPGKGLEWVSVISYDGSYKYYADSVKGRFTISRDNSKNTLYLQMNSLRAEDTAVYYCAAGVPDYWGQGTLVTVSS VL: QSVLTQPPSASGTPGQRVTISCTGSSSNIGAGYDVHWYQQLPGTAPKLLIYSNNERPSGVPDRFSGSKSGTSASLAISGLRSEDEADYYCAAWDPSLNGPVFGGGTKLTVL | –
0.45 nM | 9.2 nM | TPP-26300 (antibody, V domains shown, constant regions not restated) VH: EVQLLESGGGLVQPGGSLRLSCAASGFTFSSYGMHWVRQAPGKGLEWVSVISYDGSYKYYADSVKGRFTISRDNSKNTLYLQMNSLRAEDTAVYYCAAGVPDYWGQGTLVTVSS VL: QSVLTQPPSASGTPGQRVTISCTGSSSNIGAGYDVHWYQQLPGTAPKLLIYSNNERPSGVPDRFSGSKSGTSASLAISGLRSEDEADYYCAAWDSSLNGPVFGGGTKLTVL | –
0.63 nM | 11 nM | TPP-26299 (antibody, V domains shown, constant regions not restated) VH: EVQLLESGGGLVQPGGSLRLSCAASGFTFSSYGMHWVRQAPGKGLEWVSVISYDGSYKYYADSVKGRFTISRDNSKNTLYLQMNSLRAEDTAVYYCAAGVPDYWGQGTLVTVSS VL: QSVLTQPPSASGTPGQRVTISCTGSSSNIGAGYDVHWYQQLPGTAPKLLIYSNNERPSGVPDRFSGSKSGTSASLAISGLRSEDEADYYCAAWDDSLYGPVFGGGTKLTVL | –
